# Assay: soluble on expression in E. coli; label from the status in PepcDB or PDB records
row,Sequence,soluble on expression in E. coli
1,MNLRSVFTVEQQRILQRYYENGMTNQSKNCFQLILQCAQETKLDFSVVRTWVGNKRRKMSSKNSESGTATTGTSLSAPDITVRNVVNIARPSSQQSSWTSANNDVIVTGIYSPASSSSRQGTNKHTDTQITEAHKIPIQKTATKNDTEFQLHIPVQRQVAHCKNASLLLGEKTIILSRQTSVLNAGNSVFNHAKKNYGNSSVQASEMTVPQKPSVCHRPCKIEPVGIQRSYKPEHTGPALHNLCGQKPTIRDPYCRTQNLEIREVFSLAVSDYPQRILGGNAPQKPSSAEGNCLSIAMETGDAEDEYAREEELASMRAQIPSYSRFYESGSSLRAENQSTTLPGPGRNMPNSQMVNIRDMSDNVLYQNRNYHLTPRTSLHTASSTMYSNTNPLRSNFSPHFASSNQLRLSQNQNNYQISGNLTVPWITGCSRKRALQDRTQFSDRDLATLKKYWDNGMTSLGSVCREKIEAVATELNVDCEIVRTWIGNRRRKYRLMGIEVPPPRGGPADFSEQPESGSLSALTPGEEAGPEVGEDNDRNDEVSICLSEGSSQEEPNEVVPNDARAHKEEDHHAVTTDNVKIEIIDDEESDMISNSEVEQVNSFLDYKNEEVKFIENELEIQKQKYFKLQTFVRSLILAMKADDKEQQQALLSDLPPELEEMDFNHASLEPDDTSFSVSSLSEKNVSESL,soluble
2,MGNAAAYQRYRRPDCATEIDFSTENHSGREKIMSESLSWMQTGDTLALSGELDQDVLLPLWEMREEAVKGITCIDLSRVSRVDTGGLALLLHLIDLAKKQGNNVTLQGVNDKVYTLAKLYNLPADVLPR,not soluble
3,MKNLILVLGCFFFLISCQQTEKEKLEELVKNWNGKEVLFPTNPSFTLYGKTPVDFKIPVSDYKIVTYVDSLGCSSCKLQLPKWKEFMKYADSIVGYQIPVLFFLHPANVREMRSVLKQNRFDYPVCMDTEDTFNKVNKFPSQLNFQTFLLDKNNHVIAIGNPVHNYDVRELYIHLISGGIDGDSLSNMRTVIKIEEDMVDLGSFDWRREQHITFEIHNIGNNNLVVYDNKTSCGCTSVEYSKEPVQPGKSLAVKVTYKADHPEHFNKTIILYCNASASPLELKITGNAK,not soluble
4,MTDNNKYRDVEIRAPRGNKLTAKSWLTEAPLRMLMNNLDPQVAENPKELVVYGGIGRAARNWECYDKIVETLTRLEDDETLLVQSGKPVGVFKTHSNAPRVLIANSNLVPHWANWEHFNELDAKGLAMYGQMTAGSWIYIGSQGIVQGTYETFVEAGRQHYGGSLKGKWVLTAGLGGMGGAQPLAATLAGACSLNIESQQSRIDFRLETRYVDEQATDLDDALVRIAKYTAEGKAISIALHGNAAEILPELVKRGVRPDMVTDQTSAHDPLNGYLPIGWTWEQYRDRAQTIPAAVVKAAKASMAVHVQAMLDFQKQGVPTFDYGNNIRQMAKEEGVANAFDFPGFVPAYIRPLFCRGVGPFRWAALSGEAEDIYKTDAKVKELIPDDAHLHRWLDMARERISFQGLPARICWVGLGLRAKLGLAFNEMVRSGELSAPVVIGRDHLDSGSVSSPNRETEAMRDGSDAVSDWPLLNALLNTAGGATWVSLHHGGGVGMGFSQHSGMVIVCDGTDEAAERIARVLTNDPGTGVMRHADAGYDIAIDCAKEQGLDLPMITG,soluble
5,MTEKSIDLSVDIAGLRLSNPVIAASGTFGFGREFVDYVDLNKIGGISVKGLTLEKRQGNRPPRIAETPAGILNSVGLQNPGVRAFIENEIPFLRKYNTKIIANIAGNTIEDYCKMAELLSDADIDAIELNVSCPNVKKGCVAFGNSPAGISEITSKVKKYCKKPLIVKLTPNVTDIKEIAVAAEAAGADALSLINTILGMAIDIHRKRPILANNVGGLSGPAVKPIAVRMVYEVCSVVKIPVIGMGGISSGEDAVEFMLAGASAVMVGTANFINPAACIDVVEGIKNYLKMYNHGSVYEIIGKLQLN,not soluble
6,MAHHHHHHMRRVRLSPPLLRFPGSLFPKKNLFSKAIPLAIQTCRLFVSYSEPSYYYYYYYHNSCMCEVIRSARDSAERMGFGEGWGVCGASTRRQHRVGLFSSGSSSEHLPCMKGWSGRKDVSLIYAYHTCLLHFLLLHTCV,not soluble
7,MLAPERIHPALWRATQLAHGPTRKLPTGYADLSAQLPGGGWPLGALVELLLPQPGSGEIRLLRPALAQLEARRAIALVQPPHAPHIASWASWRLDPRQLLWVAPERPADALWAAEQILKAGSCAALLCWLPQVRPESLRRLHLAAQGGDALFVALRPAAAEQHASPAVLRLALAPAPGGLSIRIVKRRGPACEHPVHVGLEAGAGLSVFPAPHAPLDRRLPAQPVAGRRTPALVSLEHHHHHH,not soluble
8,MSLKIKHEHIRMAMNAWAHPDGEKVPAAEITRAYFELGMTFPELYDDSHPEALARNTQKIFRWVEKDTPDAVEKIQALLPAIEKSMPPLLVARMRSHSSAYFRELVETRERLVRDADDFVAVAIAGFNQMNRGGPAGNIVAVHEGHHHHHH,soluble
9,MHHHHHHGKPIPNPLLGLDSTENLYFQGIDPFTKAYAFGFPKIGEKREFKKALEDFWKGKITEEQFEEEMNKLRMYMVENYRKNVDVIPSNELSYYDFVLDTAVMVGAVPERFGEYRGLSTYFDMARGGKALEMTKFFNTNYHYLVPEIETEEFYLLENKPLEDYLFFKSKGIETAPWVIGPFTFLYLSKRNGEWIRRPNQMEKLLESLVSVYKEVFEKLVENGCKEILVNEPAFVCDLEKAHWDLILNVYRELSEFPLTVFTYYDSVSDYEACVSLPVKRLHFDFVSNEENLKNLEKHGFPEDKKLVAGVINGRQPWKVDLRKVASLVEKLGASAISNSCPLFHLPVTLELENNLPGGLKEKLAFAKEKLEELKMLKDFLEGKTFDLPNVSFEDFAVDLQAVERVRNLPEDSFRREKEYTERDRIQRERLNLPLFPTTTIGSFPQTPEVRKMRSKYRKGEISKEEYEAFIKEQIKKAIELQEEIGLDVLVHGEFERTDMVEFFAEKLNGIATTQNGWVLSYGSRCYRPPIIYGTVTRPEPMTLKEITYAQSLTEKPVKGMLTGPVTIMSWSYYREDIPEREIAYQIALAINEEVKDLEEAGIKIVQIDEPAFREKAPIKKSKWPEYFEWAINAFNLAANARPETQIHAHMCYSDFNEIIEYIHQLEFDVISIEASRSKGEIISAFENFKGWIKQIGVGVWDIHSPAVPSINEMREIVERVLRVLPKELIWINPDCGLKTRNWDEVIPSLRNMVALAKEMREKFES,soluble
10,MSLSGIYERLQSLESLDLKSLDKNRTMLLIVDINKGFAKEGALYSDRIEKLISPISNLANYALNSGIRVKAFTDYHTEDSIELKAYPKHCMKDTDEWELVDELNLEGIEVIKKNSTNGFLEENFILNKEEIDNVIIVGDCTDICIYQLAISLRAEFNRVNKDGEIYVPKKLVDTFDMPMHKANFMNYVFLNSMLDNGVKVIEDIILDEGHHHHHH,soluble
11,MTQANLSETLFKPRFKHTETSTLVRRFNRGSQPPMQSALDGKNVPHWYRMINRLMWIWRGVDPREILDVQARIVMSDAERTDDDLYDTVIGYRGGNWIYEWAKQAMDWQQKACQEQDAMRSGRYWLHASTLYNIAAYPHLKGDELAEQAQALANRAYEEAAQRLPGSLREMEFAVPGGSPVTAFLHMPKGDGPFPTVLMCGGLDAMQTDYYTLYERYFAPRGIAMLTLDMPSVGFSSKWKLTQDSSLLHQHVLKALPNVPWVDHTRVAAFGFRFGANVAVRLAYLEAPRLKAVACLGPVVHALLSDPQRQSTVPEMYLDVLASRLGMHDASDEALRVELNRYSLKVQGLLGRRCPTPMLSGFWKNDPFSPEEESRLITTSSSDGKLIEIPFNPVYRNFDRALQEITDWINHRLC,not soluble
12,MSLERNYEESALFEHQFWLKVLTDHAQFLLDALAPKEKEDIKKATYFVETFTNLLNKVRNVNLMAFSKEAEQAAKEIRAFKLNIIQKQLEGKITIHFTPTFINHMVNEVEEYIAVLEFLKKGEVPPVFHELHYHLVWLTDAAGHAGSISGGLDLVEKRLKEKSEEFTKHFEQFYLKAVEMTGYLRTELHHFPALKKFTKDVSLELKLFSHFLHEVEELELSNEVLSVLSARMADHMAREECYYLLKLAQSSGLEMPKCNPLEGHHHHHH,soluble
13,MEEKDWEGSPLSENEAGLLCYDDEEYQFGGPAPKLQFRYLSEIGELQLLGDEDDVVISLKDLYGEIAEGKYGCCWENYEVYRYLKGLGYILGRHGVPWTTKYAVNTTPSDEDESLCAAEFFQDRDSVTKLLSDMHICDARPVFDVYLPNSQFKKSSPGEPSFVTCFSG,soluble
14,MFLKILPRIRRPTRSYAAVLAARHEGFAKVMQSDLMAFENFLGQDAVKKDDITNHTTDWTGQFKGPGSVVLYPKSTEEVSAILAYCSKNKLAVVPQGGNTGLVGGSIPVHDEVVISMNKINKQFSFDDTMGILKCDSGFILEDLDNKLAKLGYMMPFDLGAKGSCQIGGNIATCAGGIRLIRYGSLHAHLLGLTVVLPDEHGTVLHLGSSIRKDNTTLHTPHLFLGSEGQLGVITSVTMTAVPKPKSVQSAMLGIESFKKCCEVLKLAKSSLTEILSSFELLDDATMECLKTNLGLHPVLNAPTPFSILVETSGSNEDHDMEKMSAFLDECLSKNLIIDGVLAGSSAEATKMWQLRESAPLAVTRDGYVYKHDVSLPLENYYELTNVMKERCGSLAKRIVTYGHLGDGNTHLNITSEKHNEELEKLLYPFLYEWVVDHGGSISAEHGIGQLKLPYSTFGKDPEERLLTKKLKNIFDPNGILNPYKTI,not soluble
15,MASWSHPQFEKGASTSLYKKAGRMSKFTWKELIQLGSPSKAYESSLACIAHIDMNAFFAQVEQMRCGLSKEDPVVCVQWNSIIAVSYAARKYGISRMDTIQEALKKCSNLIPIHTAVFKKGEDFWQYHDGCGSWVQDPAKQISVEDHKVSLEPYRRESRKALKIFKSACDLVERASIDEVFLDLGRICFNMLMFDNEYELTGDLKLKDALSNIREAFIGGNYDINSHLPLIPEKIKSLKFEGDVFNPEGRDLITDWDDVILALGSQVCKGIRDSIKDILGYTTSCGLSSTKNVCKLASNYKKPDAQTIVKNDCLLDFLDCGKFEITSFWTLGGVLGKELIDVLDLPHENSIKHIRETWPDNAGQLKEFLDAKVKQSDYDRSTSNIDPLKTADLAEKLFKLSRGRYGLPLSSRPVVKSMMSNKNLRGKSCNSIVDCISWLEVFCAELTSRIQDLEQEYNKIVIPRTVSISLKTKSYEVYRKSGPVAYKGINFQSHELLKVGIKFVTDLDIKGKNKSYYPLTKLSMTITNFDIIDLQKTVVDMFGNQVHTFKSSAG,soluble
16,MLGKLPQQANDYLNSFNWERQVSHAKEKLTALTKKYRITENDIQIALDDAKINFNEKLSQLQTYMI,not soluble
17,MSSNALYTDLSGYYDLMCSDINYQQQSASIHRLHQFLGNNGKQHLDLACGTGPHVRHFIDLGYQCSGLDINQPMLDMAMRRCPEAQFNLQDMTAFYLEQPVDLITCFLYSIHYSAGIERLKSCIASVHRALNDGGIFCFNSVDKHCIDNRLSIKHFAEFEGYHFAFESGWHYNGQGEKQSLNLSIAKRQQPFTQLTDFEADTSLHQTELWQDQHTMVATSFAELQALLAPYFEVHIFEHDYEKIVPWDLSSGNALFVCVKILEHHHHHH,not soluble
18,MAAEIKQGDHKFYVGDDENNPKAVITFKEVDNNEIDIDHTGVSDELGGQGLGKKLVNRVVEHARENNLKIIASCPFAKNVLEKDDHAQDVYLGLEHHHHHH,soluble
19,KDFLAMFSPKCGGCNRPVLENYLSAMDTVWHPECFVCGDCFTSFSTGSFFELDGRPFCELHYHHRRG,soluble
20,MSLYPKAYIDYLVEFHATRDYFECHEILEEYWKEDPPKKRKRYWVGFIQLAVALYHHRRQNTAGAKRLMANSIRILQAEHRAVEDLGLDHGRLLELMQSVYEQIETVSAYKSIILPIKDEKLEEACRIECRKKKYTWGQPSALSNIFLIDKHRLRDRTDVIREREKEIERRKKSRDEGHHHHHH,soluble
21,MWKFATRLGLESVDTIAATNPREAIAAVAAGQADYACVAIENSVDGPVTPTFDALATIDGVRIFHELDLPIAFAIMQRTGAPLRRFATHPVAYQQVKTWLAANAPAAEFVPASSNAEAARMAKENIVDFAAAPARAAEVYGLDIIADGVADVTGARTRFVLVGHADT,not soluble

# — the DeepSol protein solubility set
